From paper PMC5651854, “Reconstitution of human shelterin complexes reveals unexpected stoichiometry and dual pathways to enhance telomerase processivity” (Nature Communications, 2017) come the findings set out here.

The target of one data set is T1, ybbR-tagged human TIN2 (human, UniProt Q9BSI4-2 1-354, Cy3 (from CoA-Cy3, by Sfp phosphopantetheinyl transferase) on the ybbR tag).
T1 construct: The methods put the ybbR tag at the C-terminus of TIN2; the results speak of an N-terminal tag on each protein; also called TIN2 (ybbR tag); source: Tni insect cells (baculovirus), co-expressed, purified as complex, labelled with CoA-Cy3 by Sfp; not shown: His6, N-terminal, cleaved; MBP, N-terminal, cleaved
T1 sequence (looked up): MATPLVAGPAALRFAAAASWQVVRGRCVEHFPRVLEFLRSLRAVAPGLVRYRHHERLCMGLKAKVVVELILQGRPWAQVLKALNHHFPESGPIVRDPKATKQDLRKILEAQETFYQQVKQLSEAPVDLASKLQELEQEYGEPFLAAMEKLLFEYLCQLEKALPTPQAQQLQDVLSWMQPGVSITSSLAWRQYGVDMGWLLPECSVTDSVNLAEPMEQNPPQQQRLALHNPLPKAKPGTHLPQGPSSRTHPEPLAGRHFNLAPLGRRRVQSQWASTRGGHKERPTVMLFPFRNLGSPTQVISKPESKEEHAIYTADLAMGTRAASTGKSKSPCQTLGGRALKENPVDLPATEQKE
As to the kind of experiment: fluorescence intensity of Cy3-labelled ybbR-tagged subunits on SDS-PAGE; purified complexes (5 µM) with one ybbR tag on each subunit labelled with CoA-Cy3 (10 µM) by Sfp (1 µM), 50 mM HEPES pH 7.5, 300 mM KCl, 10 mM MgCl2, 1 mM TCEP, overnight at 4 °C; band intensities normalised to TPP1. As to conditions: both partners purified.

The next data set deals with TRF2 (Homo sapiens, UniProt A0ACI8RU48 1-541). The experiment in a line: EMSA (agarose); 500 nM protein; some smearing; Agarose EMSA: 50 mM Tris-HCl pH 8.0, 150 mM KCl, 2 mM MgCl2, 1 mM DTT, 10% glycerol, 0.5 mg/ml BSA, 0.02 mg/ml carrier dsDNA, 30 min 23 C (gel at 4 C); FP: same buffer without carrier DNA, 23 C. As to conditions: protein: recombinant; tags: 6xHis N-term; chain copies: 2; label: 5'-32P on long strand (EMSA); 3' overhang 13 nt. (A gel shift assay detects complexes by their altered migration in electrophoresis.)

B1: ybbR-tagged human TRF2 (natural protein, UniProt Q15554 1-542, looked up)
chain: MAAGAGTAGPASGPGVVRDPAASQPRKRPGREGGEGARRSDTMAGGGGSSDGSGRAAGRRASRSSGRARRGRHEPGLGGPAERGAGEARLEEAVNRWVLKFYFHEALRAFRGSRYGDFRQIRDIMQALLVRPLGKEHTVSRLLRVMQCLSRIEEGENLDCSFDMEAELTPLESAINVLEMIKTEFTLTEAVVESSRKLVKEAAVIICIKNKEFEKASKILKKHMSKDPTTQKLRNDLLNIIREKNLAHPVIQNFSYETFQQKMLRFLESHLDDAEPYLLTMAKKALKSESAASSTGKEDKQPAPGPVEKPPREPARQLRNPPTTIGMMTLKAAFKTLSGAQDSEAAFAKLDQKDLVLPTQALPASPALKNKRPRKDENESSAPADGEGGSELQPKNKRMTISRLVLEEDSQSTEPSAGLNSSQEAASAPPSKPTVLNQPLPGEKNPKVPKGKWNSSNGVEEKETWVEEDELFQVQAAPDEDSTTNITKKQKWTVEESEWVKAGVQKYGEGNWAAISKNYPFVNRTAVMIKDRWRTMKRLGMN
modifications: Cy3 (from CoA-Cy3, by Sfp phosphopantetheinyl transferase) on the ybbR tag
notes: also called TRF2 (ybbR tag); source: Tni insect cells (baculovirus), co-expressed, purified as complex, labelled with CoA-Cy3 by Sfp
Broadly, the stoichiometry N is the number of molecules, sites or subunits per partner or assembly. Take B1: the “stoichiometry N” value with ybbR-tagged human TIN2 came to 2 TRF2 per TIN2.

B2: C8 (mixed)
DNA 1: GACCATGCTTAGGGTTAGGGTTATCATACAAGTTAGGGTTAGGG
DNA 2: TTGTATGATAACCCTAACCCTAAGCATGGTC
Turning to B2, the binding result with TRF2 is “binds”.
